Assay results taken from article PMC2597375 (Nature structural & molecular biology, 2008).
Where no end group is shown, it is not given here. [ ]: non-standard residue; d: D form. pS = N[C@@H](COP(=O)(O)O)C(=O)O

T1: Nrd1_(6–151) wild-type (S. cerevisiae, UniProt P53617 6-151)
T1 sequence: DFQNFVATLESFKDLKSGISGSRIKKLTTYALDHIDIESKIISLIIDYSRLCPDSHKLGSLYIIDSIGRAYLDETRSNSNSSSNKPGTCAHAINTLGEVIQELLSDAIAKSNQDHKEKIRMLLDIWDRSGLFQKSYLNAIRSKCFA

T2: Nrd1_(6–151) I130R (S. cerevisiae, UniProt P53617 6-151, I130R)
T2 sequence: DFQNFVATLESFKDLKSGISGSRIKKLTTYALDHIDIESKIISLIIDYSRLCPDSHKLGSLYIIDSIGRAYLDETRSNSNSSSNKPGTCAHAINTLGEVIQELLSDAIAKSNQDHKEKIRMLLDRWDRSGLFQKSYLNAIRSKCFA

T3: Nrd1_(6–151) K21D (S. cerevisiae, UniProt P53617 6-151, K21D)
T3 sequence: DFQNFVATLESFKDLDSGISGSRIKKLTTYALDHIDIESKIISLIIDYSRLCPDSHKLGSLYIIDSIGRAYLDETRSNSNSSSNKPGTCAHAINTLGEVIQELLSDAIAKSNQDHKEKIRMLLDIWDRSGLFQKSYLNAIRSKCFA

T4: Nrd1_(6–151) S22D (S. cerevisiae, UniProt P53617 6-151, S22D)
T4 sequence: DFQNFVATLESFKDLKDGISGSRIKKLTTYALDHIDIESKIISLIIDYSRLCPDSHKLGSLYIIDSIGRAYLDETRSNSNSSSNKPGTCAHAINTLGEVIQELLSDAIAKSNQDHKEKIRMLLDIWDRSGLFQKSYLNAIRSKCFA

T5: Nrd1_(6–151) K21P (S. cerevisiae, UniProt P53617 6-151, K21P)
T5 sequence: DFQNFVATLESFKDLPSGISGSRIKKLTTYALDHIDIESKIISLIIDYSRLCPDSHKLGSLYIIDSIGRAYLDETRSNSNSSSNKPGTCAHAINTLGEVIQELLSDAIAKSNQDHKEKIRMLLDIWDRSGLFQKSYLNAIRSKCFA

T6: Nrd1_(6–151) L20D (S. cerevisiae, UniProt P53617 6-151, L20D)
T6 sequence: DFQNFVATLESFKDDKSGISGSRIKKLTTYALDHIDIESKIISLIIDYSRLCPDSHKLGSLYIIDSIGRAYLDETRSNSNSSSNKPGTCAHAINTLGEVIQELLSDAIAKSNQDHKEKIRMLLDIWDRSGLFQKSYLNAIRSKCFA

T7: Nrd1_(6–224) (S. cerevisiae, UniProt P53617 6-224)
T7 sequence: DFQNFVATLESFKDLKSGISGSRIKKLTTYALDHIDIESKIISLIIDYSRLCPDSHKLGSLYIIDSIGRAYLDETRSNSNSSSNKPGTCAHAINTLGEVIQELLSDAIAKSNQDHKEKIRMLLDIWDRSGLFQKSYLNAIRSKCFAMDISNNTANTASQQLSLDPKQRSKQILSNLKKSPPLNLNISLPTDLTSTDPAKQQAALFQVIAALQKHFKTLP


Legend:
[1] = molecular target: unlabeled double-repeat CTD-Ser5P peptide (S. cerevisiae); assay: fluorescence polarisation
[2] = molecular target: unlabeled double-repeat CTD-Ser2P/Ser5P peptide (S. cerevisiae); assay: fluorescence polarisation
Nrd1_(6–151) wild-type = molecular target: T1, Nrd1_(6–151) wild-type; assay: fluorescence polarisation
Nrd1_(6–151) I130R = molecular target: T2, Nrd1_(6–151) I130R; assay: fluorescence polarisation
Nrd1_(6–151) K21D = molecular target: T3, Nrd1_(6–151) K21D; assay: fluorescence polarisation
Nrd1_(6–151) S22D = molecular target: T4, Nrd1_(6–151) S22D; assay: fluorescence polarisation
Nrd1_(6–151) K21P = molecular target: T5, Nrd1_(6–151) K21P; assay: fluorescence polarisation
Nrd1_(6–151) L20D = molecular target: T6, Nrd1_(6–151) L20D; assay: fluorescence polarisation
CTD = CTD binding of Nrd1 variants; settings: point mutants: fluorescence anisotropy, Table 1; deletions: data not shown
Nrd1_(6–224) = molecular target: T7, Nrd1_(6–224); assay: ITC
Pol II = format: binding, S. cerevisiae; settings: whole-cell extracts, IgG purification, anti-CTD Ser5P (H14) immunoblot

Row | Molecule | Kd [1] [µM] | Kd [2] [µM] | other results
1 | Nrd1_(6–214) wild-type (from UniProt P53617 6-214) (domain or fragment) | 48 | – | –
2 | Nrd1_(6–151) wild-type (from UniProt P53617 6-151) (domain or fragment) | 40 | 16 | –
3 | Nrd1_(6–151) L20D (from UniProt P53617 6-151) (domain or fragment) | – | 19 | –
4 | Y[pS]PTSPSY[pS]PTSPS [unlabeled double-repeat CTD-Ser2P peptide] | – | – | Kd (Nrd1_(6–151) wild-type): 390 µM; Kd (Nrd1_(6–151) I130R): 550 µM; Kd (Nrd1_(6–151) K21D): 610 µM; Kd (Nrd1_(6–151) S22D): 470 µM; Kd (Nrd1_(6–151) K21P): 380 µM; Kd (Nrd1_(6–151) L20D): 560 µM
5 | Nrd1_307–560: containing only the RNA binding region and the C-terminal region (protein) PDELNVSNNPHYRPKPVSYDSTLPPDHIKVYSRTLFIGGVPLNMKEWDLANVLKPFAEVQSVILNNSRKHAFVKVYSRHEAENVLQNFNKDGALPLRTRWGVGFGPRDCCDYQHGYSIIPMHRLTDADKKWSVSAQWGGTSGQPLVTGIVFEEPDIIVGEGVSSKAISQKMPTDSGRNGPRSGKPNKSGSISSISPVPYGNAPLASPPPQQYVQPMMQQPYGYAPNQPLPSQGPAAAAPPVPQQQFDPTAQLNS | – | – | CTD binding of Nrd1 variant (CTD): no CTD binding
6 | Nrd1_(6–151) K21P (domain or fragment) DFQNFVATLESFKDLPSGISGSRIKKLTTYALDHIDIESKIISLIIDYSRLCPDSHKLGSLYIIDSIGRAYLDETRSNSNSSSNKPGTCAHAINTLGEVIQELLSDAIAKSNQDHKEKIRMLLDIWDRSGLFQKSYLNAIRSKCFA | 70 | 48 | –
7 | Nrd1_(6–151) I130R (domain or fragment) DFQNFVATLESFKDLKSGISGSRIKKLTTYALDHIDIESKIISLIIDYSRLCPDSHKLGSLYIIDSIGRAYLDETRSNSNSSSNKPGTCAHAINTLGEVIQELLSDAIAKSNQDHKEKIRMLLDRWDRSGLFQKSYLNAIRSKCFA | 215 | 27 | –
8 | Nrd1_(6–151) D70R (domain or fragment) DFQNFVATLESFKDLKSGISGSRIKKLTTYALDHIDIESKIISLIIDYSRLCPDSHKLGSLYIIRSIGRAYLDETRSNSNSSSNKPGTCAHAINTLGEVIQELLSDAIAKSNQDHKEKIRMLLDIWDRSGLFQKSYLNAIRSKCFA | 680 | 100 | –
9 | Nrd1_(6–151) S22D (domain or fragment) DFQNFVATLESFKDLKDGISGSRIKKLTTYALDHIDIESKIISLIIDYSRLCPDSHKLGSLYIIDSIGRAYLDETRSNSNSSSNKPGTCAHAINTLGEVIQELLSDAIAKSNQDHKEKIRMLLDIWDRSGLFQKSYLNAIRSKCFA | 140 | 100 | –
10 | Nrd1_(6–151) K21D (domain or fragment) DFQNFVATLESFKDLDSGISGSRIKKLTTYALDHIDIESKIISLIIDYSRLCPDSHKLGSLYIIDSIGRAYLDETRSNSNSSSNKPGTCAHAINTLGEVIQELLSDAIAKSNQDHKEKIRMLLDIWDRSGLFQKSYLNAIRSKCFA | 95 | 70 | –
11 | ENVNYDLLQKQVKYIMDSNMLNLPQFQHLPQEEKMSAILAMLNSN (domain or fragment) [Nab3_(204–248)] | – | – | Kd (Nrd1_(6–224)): 0.16 µM; stoichiometry N (Nrd1_(6–224)): 1
12 | Nrd1Δ6–150 (protein, left off: TAP (with Protein A module), end not stated, kept) MQQDDAMDISNNTANTASQQLSLDPKQRSKQILSNLKKSPPLNLNISLPTDLTSTDPAKQQAALFQVIAALQKHFKTLPSHTSVGTVAPPQAHTITEYGSRRERERERERYNSRRNRSRSPPAPFSQPSTGRKDRYPSVAQDQYSIGAPNTTFGTNNHHLYPDELNVSNNPHYRPKPVSYDSTLPPDHIKVYSRTLFIGGVPLNMKEWDLANVLKPFAEVQSVILNNSRKHAFVKVYSRHEAENVLQNFNKDGALPLRTRWGVGFGPRDCCDYQHGYSIIPMHRLTDADKKWSVSAQWGGTSGQPLVTGIVFEEPDIIVGEGVSSKAISQKMPTDSGRNGPRSGKPNKSGSISSISPVPYGNAPLASPPPQQYVQPMMQQPYGYAPNQPLPSQGPAAAAPPVPQQQFDPTAQLNSLMNMLNQQQQQQQQS | – | – | Association with Pol II (Pol II): greatly reduced association with Pol II
13 | Nrd1Δ151–214 (protein, left off: TAP (with Protein A module), end not stated, kept) MQQDDDFQNFVATLESFKDLKSGISGSRIKKLTTYALDHIDIESKIISLIIDYSRLCPDSHKLGSLYIIDSIGRAYLDETRSNSNSSSNKPGTCAHAINTLGEVIQELLSDAIAKSNQDHKEKIRMLLDIWDRSGLFQKSYLNAIRSKCFALQKHFKTLPSHTSVGTVAPPQAHTITEYGSRRERERERERYNSRRNRSRSPPAPFSQPSTGRKDRYPSVAQDQYSIGAPNTTFGTNNHHLYPDELNVSNNPHYRPKPVSYDSTLPPDHIKVYSRTLFIGGVPLNMKEWDLANVLKPFAEVQSVILNNSRKHAFVKVYSRHEAENVLQNFNKDGALPLRTRWGVGFGPRDCCDYQHGYSIIPMHRLTDADKKWSVSAQWGGTSGQPLVTGIVFEEPDIIVGEGVSSKAISQKMPTDSGRNGPRSGKPNKSGSISSISPVPYGNAPLASPPPQQYVQPMMQQPYGYAPNQPLPSQGPAAAAPPVPQQQFDPTAQLNSLMNMLNQQQQQQQQS | – | – | Association with Pol II (Pol II): greatly reduced association with Pol II
